Consider seven substances from patent publication US11413329B2, “Cancer cell trap” (BOARD OF REGENTS, THE UNIVERSITY OF TEXAS SYSTEM, priority 2012, dated 2022).

Series [1] is described as follows: Release kinetics of cytokines/growth factors from MB scaffolds. The conditions noted are these: gelatin MB scaffolds; for sustained release, share of total amounts per day: after the bolus; for bolus release: within the first 24 hours. The source says: Chemokine/growth factor loaded PLGA scaffolds were fabricated using our protein microbubble fabrication method. Briefly, 2-20% w/v protein solution with various chemokines was overlaid with nitrogen gas and sonicated using a probe sonicator (Ultrasonix, Bothell, Wash.) at 20 kHz for 10 seconds. Protein solution can be composed of single proteins or protein mixtures in different ratios. The potential protein candidates including albumin, collagen, gelatin, immunoglobulins, extracellular matrix proteins, fibronectin, etc. Protein microbubble solutions can be added to PLGA (3-15% w/v in 1,4 dioxane) in a 1:1 ratio and gently agitated. They were then quenched in liquid nitrogen and lyophilized for 72 hours at 0.01-0.1 mBar vacuum in a Freezone 12 lyophilizer (Labconco, Kansas City, Mo., USA).
The microbubble (MB) scaffolds were analyzed using Scanning Electron Microscopy. […] Protein distribution and internal architecture of the scaffolds was determined by staining histological sections with Coomassie Blue as described earlier. […] In contrast, Coomassie Blue staining of the gelatin MB scaffold sections indicated the presence of protein around the pores and throughout the matrix of the gelatin MB scaffolds (FIG. 12C). The compressive strength of the scaffolds was tested using an MTS Insight 2 machine fitted with a 500 N load cell. Samples (5 mm width and 5 mm thickness) were compressed to 10% strain at a deflection rate of 2 mm/min. The Young's modulus was calculated from the slope of the curve similar to our earlier publication. […] Finally, the release kinetics of cytokines/growth factors from MB scaffolds was determined using Oyster 800-conjugated EPO and Oyster 800-conjugated SDF.

The nature of series [2]: Release rates of chemokines/growth factors from cancer cell traps. Conditions: for Release rates: optimal release rate from cancer cell traps; for Duration: release from cancer cell traps. The source says: The Experiments have been carried out to determine the release rates of various cancer stem cell chemokines/growth factors from cancer cell traps. The optimal release rates for each biomolecules are listed below.
Cancer cell trap size and dimension for human patients. All studies carried out thus far used mice cancer models. Since the cancer cells are recruited based on the chemokines gradient, localized concentrations, but not the systemic concentrations, are the determining factors. In other words, the effectiveness of the cancer cell traps are determined on the localized release rates as listed in the above table.

For series [3], the system named is PC3 prostate cancer cells. In words: PC3 prostate cancer cell recruitment to PEG hydrogel cancer cell traps. It is filed as in vivo, mouse. The conditions noted are these: C57 mice, released from subcutaneous PEG hydrogel, 24 hours after intravenous transplantation, fluorescence intensity, vs saline. The text has this:
Using near-infrared labeled PC3 prostate cell transplanted mice, the effect of hydrogel cancer cell traps in reducing cancer metastasis was studied. Specifically, PEG hydrogel was fabricated as following. Carboxyl-terminal PEG derivative polymer was synthesized using free radical polymerization. In brief, 4,4′-azobis(4-cyanovaleric acid) and various weight ratios (10:1-20:1) of 2-(2-Methoxyethoxy)ethyl methacrylate (MEO2MA) and oligo(ethylene glycol)monomethyl ether methacrylates (Mw:475;OEOMA475) were dissolved in ethanol to form a 20 wt % monomer solution. The solution was purged with nitrogen gas for 10 min and incubated at 60° C. for 6 h. The solvent was then removed with evaporation under vacuum and the crude polymers are re-dissolved in DI water and were purified with exhaust dialysis against DI water and then lyophilized. The low critical solution temperature (LCST) of the carboxyl-terminal PEG derivative polymers was determined using an UV-vis spectrometer. By changing the molar ratios of MEO2MA to OEOMA475, the carboxyl-terminal PEG derivative polymer with LCST of 32° C. was achieved and the polymer used to fabricate thermogelling bioactive hydrogel scaffold as described below. Incorporation of chemokines/cytokines to PEG hydrogel was achieved by physical adsorption. PEG hydrogel was mixed with vascular endothelial growth factor (VEGF) (100 ng/ml), erythropoietin (EPO) (100 international unit/ml), stromal derived factor-1α (SDF-1α) or saline (as control). The hydrogel samples were then injected into the subcutaneous cavity (under the skin) of C57 mice via 20 gauge needles. The mice were then transplanted intravenously with PC3 prostate cancer cells (5×10^6/mouse).

As to “Oyster 800-conjugated SDF: NIR dye conjugated SDF released from gelatin MB scaffolds”, in series [1], the “sustained release, share of total amounts per day” value is on record as “approximately 2%” and the bolus release stood at 20%.
For “Oyster 800-conjugated EPO: NIR dye conjugated EPO released from gelatin MB scaffolds”, in that order: “approximately 2%” and 20%.
In the case of “Hepatocyte growth factor (HGF/SF): hepatocyte growth factor/scatter factor released from cancer cell traps”, in series [2], the Release rates was 15 ng/1 milliliter of ng/1 milliliter of hydrogel/particle cancer traps or 1 cubic centimeters scaffold traps/day and the Duration is more than 28 days.
As to VEGF, in series [3], the “recruitment of PC3 prostate cancer cells to the implant sites” value is “increased the recruitment”.
“RANTES/CCL5: chemokine released from cancer cell traps”: in series [2], the Release rates is listed as 10 ng/1 milliliter of ng/1 milliliter of hydrogel/particle cancer traps or 1 cubic centimeters scaffold traps/day and the Duration is recorded as more than 21 days.
Regarding “EPO: erythropoietin, released from cancer cell traps”, the “recruitment of PC3 prostate cancer cells to the implant sites” value in series [3] was “increased the recruitment”. In series [2], the Release rates is given as 1.5-2.5 international international units/1 milliliter of hydrogel/particle cancer traps or 1 cubic centimeters scaffold traps/days and the Duration was more than 30 days.
For SDF-1α, in that order: “increased the recruitment”, 100 ng/1 milliliter of ng/1 milliliter of hydrogel/particle cancer traps or 1 cubic centimeters scaffold traps/day and more than 24 days.
